# Measurements reported in PMC7617879.
# Molecular target: catalytic domain of MMP-14 (MMP-14CAT) (human)
# Assay: enzyme inhibition assay
substance,measurement,value
wild-type N-terminal domain of TIMP2 (N-TIMP2) (domain or fragment),Ki,0.76 nM
